Results on two molecules are retold here after paper PMC8476643 (Nature Communications, 2021).

Experiment [1] addresses T1, SARS-CoV two-proline stabilized S trimer (S-2P) (SARS-CoV (GenBank NC_004718.3), UniProt P59594, stabilised).
T1 construct: also called SARS-CoV S-2P
Briefly: SPR. To be noted: both partners purified.

The target in experiment [2] is T1, SARS-CoV two-proline stabilized S …. Briefly: SPR. To be noted: both partners purified. The source holds these as a separate data set.

B1: 6D6 monoclonal antibody (antibody, V domains shown)
VH: EVQLQQSGAELVKPGASVKLSCTTSGFNIIDTYMHWVKQRPEEGLEWIGGIDPVNGNSEYDPKFQDKATITADTSSNTAYLHLSRLTSEDTAVYYCASAHYYGSSSSFPYWGQGTLVTVSA
VL: DIVMTQSQKFMSTSVGDRVSVTCKASQNVGTHVAWYQQKPGQSPKALIYSASYRYSGVPDRFTGSGVGTDFTLTITNVQSEDLAEYFCQQYNSYFTFGSGTKLEIK
notes: also called mAb 6D6; source: mouse hybridoma, ascites, purified (protein A agarose); copies: 2 + 2
The Kd is the equilibrium constant for the complex coming apart. Read a high Kd as weaker binding. One may read the koff as the rate constant with which the complex falls apart. The low end stands for slow dissociation, the high end for fast dissociation. Broadly, the kon is the second-order rate constant of association. A high value points to faster complex formation. In experiment [1], B1 came in with a Kd of 2.14 nM, a koff of 5.56e-05 s⁻¹ and a kon of 30600 M⁻¹ s⁻¹.

B2: 7D6 monoclonal antibody (antibody, V domains shown)
VH: EVQLQQSGAELVRPGASVKLSCTASGFNIKDTYIHWVKQRPEQGLEWIGRIDPGDGDTEYDPSFQGKATITADTSSNTAYLELSSLTSEDTAVYYCTRFYDYVDYGMDYWGQGTSVTVSS
VL: DIQMTQSPASLSASVGETVTITCRASGNIHNYLAWYQQKQGKSPQLLVYNAKTLADGVPSRFSGSGSGTQYSLKINSLQPEDFGSYYCQHFWSTPPWTFGGGTKLEVK
notes: also called mAb 7D6; source: mouse hybridoma, ascites, purified (protein A agarose); copies: 2 + 2
With B2, in experiment [1], the Kd came to 5.04 nM, the koff is 0.000241 s⁻¹ and the kon was found to be 47800 M⁻¹ s⁻¹. Also, the Kd in experiment [2] turned out to be 5.88 nM.
